Test results published in patent publication US20240409617A1.

Target: S1
Assay: BLI

CR3022 IgG
Kd: < 1 pM
